Assay [1] concerns the target human BDCA-2-Fc (hIgG1-Fc-hBDCA-2) (human). As to the kind of experiment: ELISA on plate-coated human BDCA2-Fc.
In assay [2] the target is BDCA-2 (CLEC4C, CD303) on human plasmacytoid dendritic cells (purified pDC or pDC within PBMC) (human) (UniProt Q8WTT0). As to the kind of experiment: cell-based or functional assay.
The target in assay [3] is human BDCA-2-Fc (hIgG1-Fc-hBDCA-2) (human). As to the kind of experiment: SPR (BIAcore T200), huBDCA2-Fc immobilised on CM5 chip, mAb injected. A general note: Surface plasmon resonance follows binding to a sensor surface in real time, without labels.
Chain of human BDCA-2-Fc (hIgG1-Fc-hBDCA-2) (human) (chain, as listed by the source limits assumed): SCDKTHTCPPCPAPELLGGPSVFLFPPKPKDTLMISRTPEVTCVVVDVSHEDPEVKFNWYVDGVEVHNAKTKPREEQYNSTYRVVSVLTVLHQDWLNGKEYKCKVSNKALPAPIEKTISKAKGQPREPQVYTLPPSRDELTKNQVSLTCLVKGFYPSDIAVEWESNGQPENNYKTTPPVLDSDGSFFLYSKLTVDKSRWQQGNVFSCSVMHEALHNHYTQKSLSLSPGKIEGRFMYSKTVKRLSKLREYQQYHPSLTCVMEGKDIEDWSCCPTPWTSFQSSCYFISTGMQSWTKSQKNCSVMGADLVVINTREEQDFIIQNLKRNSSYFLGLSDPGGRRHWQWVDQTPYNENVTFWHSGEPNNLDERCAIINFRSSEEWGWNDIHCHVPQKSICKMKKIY

Data on one substance can be found in US20220162322A1.

Chain of BDCA-2 (CLEC4C, CD303) on human plasmacytoid dendritic cells (purified pDC or pDC within PBMC) (human) (Q8WTT0 whole entry): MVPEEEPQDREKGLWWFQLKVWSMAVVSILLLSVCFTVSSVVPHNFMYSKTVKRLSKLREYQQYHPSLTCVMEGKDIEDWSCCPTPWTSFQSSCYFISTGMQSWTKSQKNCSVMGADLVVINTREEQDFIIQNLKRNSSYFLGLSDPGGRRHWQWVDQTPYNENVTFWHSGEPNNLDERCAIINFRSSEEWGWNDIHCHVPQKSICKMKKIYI

For orientation: EC50 means the concentration giving half of the maximal effect. A word on the Kd: it is the free concentration of one partner at which half of the binding sites on the other are occupied at equilibrium, for simple one-to-one binding. A lower Kd goes with a tighter complex. As for “anti-BDCA-2 mAb AC144 (Miltenyi Biotec, cat. no. 130-090-690) (antibody)”, the EC50 in assay [1] was 0.27 nM. For the same substance, in assay [2], the IC50, nM; inhibition of IFNα from ODN stimulated healthy donor PBMC stood at 1.52 nM; the IC50, ng/ml; inhibition of IFNα from ODN stimulated healthy donor PBMC came to 228 ng/mL; the IC90, nM; inhibition of IFNα from ODN stimulated healthy donor PBMC is 13.7 nM; the IC90, ng/ml; inhibition of IFNα from ODN stimulated healthy donor PBMC stood at 2060 ng/mL. This substance had a dissociation constant Kd in assay [3] of 2.3 nM.
